Earlier results in article PMC12115143.
pKd: −log10 of the molar value.

Tests used:
[1] = target: AHP2 (Arabidopsis thaliana) (UniProt Q9ZNV8)
[2] = target: AHP1 (Arabidopsis thaliana) (UniProt Q9ZNV9)
Sequence of UniProt Q9ZNV9 (Q9ZNV9 whole entry): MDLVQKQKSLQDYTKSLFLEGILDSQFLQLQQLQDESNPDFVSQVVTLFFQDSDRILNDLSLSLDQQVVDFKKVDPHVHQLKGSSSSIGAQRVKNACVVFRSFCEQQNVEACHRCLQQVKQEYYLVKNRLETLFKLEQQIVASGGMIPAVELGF

Sequence of UniProt Q9ZNV8 (Q9ZNV8 whole entry): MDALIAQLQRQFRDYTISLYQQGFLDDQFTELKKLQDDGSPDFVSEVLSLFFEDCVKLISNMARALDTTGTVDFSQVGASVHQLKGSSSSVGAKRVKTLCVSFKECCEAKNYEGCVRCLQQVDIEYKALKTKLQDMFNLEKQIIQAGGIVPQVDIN

Substance | pKd [1] | pKd [2]
AHK1 (from UniProt Q9SXL4) | 6.52 | 
ETR1 (from UniProt P49333) |  | 5.82
